# Data as given in US20080279841A1, “Novel Therapeutic Molecular Variants And Uses Thereof” (MEDVET SCIENCE PTY LTD., priority 2000, published 2008).
# Positions count from the first letter of the chain named. Names may count otherwise. “Also recorded” adds a separate entry of the source. Like-named read-outs stand apart in the source and are kept apart here.
# B1: G82DSK: human sphingosine kinase mutant, substitution of the glycine at position 82 to aspartic acid (protein)
# chain: MDPAGGPRGVLPRPCRVLVLLNPRGGKGKALQLFRSHVQPLLAEAEISFTLMLTERRNHARELVRSEELGRWDALVVMSGDDLMHEVVNGLMERPDWETAIQKPLCSLPAGSGNALAASLNHYAGYEQVTNEDLLTNCTLLLCRRLLSPMNLLSLHTASGLRLFSVLSLAWGFIADVDLESEKYRRLGEMRFTLGTFLRLAALRTYRGRLAYLPVGRVGSKTPASPVVVQQGPVDAHLVPLEEPVPSHWTVVPDEDFVLVLALLHSHLGSEMFAAPMGRCAAGVMHLFYVRAGVSRAMLLRLFLAMEKGRHMEYECPYLVYVPVVAFRLEPKDGKGVFAVDGELMVSEAVQGQVHPNYFWMVSGCVEPPPSWKPQQMPPPEEPL
# B2: hSK^G82A: human sphingosine kinase mutant, substitution of the glycine at position 82 to alanine (protein, UniProt Q9NYA1 1-384, looked up, variant G82A)
# Sphingosine kinase 1: B1 chain with D82A
# B3: hSK^WT: wild-type human sphingosine kinase (SK-1), recombinant, FLAG tagged, expressed in HEK293T cells (protein, UniProt Q9NYA1 1-384, looked up)
# Sphingosine kinase 1: B1 chain with D82G
# modifications: FLAG tag
# notes: wild-type human sphingosine kinase (SK-1), recombinant, FLAG tagged, expressed in HEK293T cells
# How the values were obtained:
# [1] = target: wild-type sphingosine kinase (Homo sapiens, UniProt Q9NYA1); details: chemical inhibitor hitherto used widely; cited from earlier work
# [2] = test system: sphingosine kinase stimulated by the oncogene Ras; test: Activation of SK by the oncogene Ras in 3T3 fibroblasts; format: cell-based; details: 3T3 fibroblasts (FIG. 6)
# Protocol: (§1) A. NIH 3T3 cells were transfected with V12-Ras, v-Src or V12-Ras plus G82D-SK, SphK activity was measured 48 h after transfection. B. Focus formation assays were performed in V12-Ras, v-Src, SphK, or V12-Ras plus G82D-SK transfected NIH 3T3 cells in the absence or presence of DMS (2.5 μM) over two weeks.
# (§2) For focus formation assay, low passage NIH 3T3 cells were transfected with the V12 mutant H-ras, v-SRC (gifts from Dr. Julian Downward^2), SphK, G82D mutant SphK expression vectors or empty vector using Lipofectamine Plus as described above. Two days later, the transfected cells were split to 6-well plates. After reaching confluence, they were kept for two weeks in DMEM containing 5% calf serum. The foci were visualized and scored after staining with 0.5% crystal violet. For soft agar assay, suspensions of 1×10^4 cells from the stable transfected pools in a growth medium containing 0.33% agar were overlaid onto 0.6% agar gel in the absence or presence of DMS at various concentrations. After 14-days incubation colonies were stained with 0.1 mg/ml MTT and those greater than 0.1 mm in diameter were scored as positive.
# protein kinase C = test: Protein kinase C activity in situ in HEK293 cells (TNFα or PMA); format: cell-based, human; details: TNFα or PMA (FIG. 7)
# Protocol: (§5) Neutral sphingomyelinase activity was determined using [choline-methyl-^14C]sphingomyelin as substrate, essentially as previously described (Wiegmann et al., 1994). Briefly, whole cell lysates, prepared as described above, were added to an equal volume of 100 mM Tris/HCl buffer (pH 7.4) containing 0.2% Triton X-100, 10 mM MgCl2 and [choline-methyl-^14C]sphingomyelin (50,000 cpm/assay) and incubated at 37° C. for 60 min. Radioactive phosphorylcholine produced was then extracted with chloroform/methanol (2:1, v/v) and quantified in the aqueous phase by scientillation counting. The measurement of PKC activity in situ was performed as described previously (Xia et al., 1996). Briefly, cells were seeded in 24-well plates and maintained in culture medium until 70-80% confluent. After the indicated treatments, the cells were washed with DMEM and placed in 60 μl of buffered salt solution (137 mM NaCl, 5.4 mM KCl, 0.3 mM Na2HPO4, 0.4 mM KH2PO4, 5.5 mM glucose, and 20 mM HEPES) supplemented with 50 μg/ml digitonin, 10 mM MgCl2, 25 mM β-glycerophosphate, and 10 μM [γ^32P]ATP (5000 cpm/pmol). A PKC-specific peptide substrate ([sequence]) was then added (to 2001) in the presence of 5 mM EGTA and 2.5 mM CaCl2. […] The PKC-dependent phosphorylated peptide substrate bound to the filter was quantified by scintillation counting.
# ERK = ERK activation by TNFα in HEK293 cells (Western blot); format: cell-based, human; details: TNFα (FIG. 9)
# Protocol: Western Blotting—SDS-PAGE was performed on cell lysates according to the method of Laemmli using 12% acrylamide gels. Proteins were blotted to nitrocellulose and the membranes blocked overnight at 4° C. in PBS containing 5% skim milk and 0.1% Triston X-100. Sphingosine kinase expression levels were analysed with the M2 anti-FLAG antibody (Sigma). ERK activation in response to agonists was followed in cells serum-starved for 4 h using anti-ERK1/2 (Zymed, San Francisco, Calif.) and anti-phospho-ERK1/2 (Promega, Madison, Wis.) antibodies. Immunocomplexes were detected after conjugation to either HRP anti-mouse (Pierce) or anti-rabbit (Selinus/AMRAD, Melbourne, Australia) IgG using an enhanced chemiluminescence kit (Amersham).
# NIH 3T3 cells = test: Focus formation (transformation) assay in V12-Ras transfected NIH 3T3 cells; format: cell-based; details: V12-Ras plus G82D-SK transfected NIH 3T3 cells, two weeks (FIG. 11)
# Protocol: as §1, §2
# [3] = Sphingosine kinase activity of lysates of HEK293/HEK293T cells transfected with hSK or mutant hSK; format: biochemical, human; details: for sphingosine kinase (catalytic) activity of the variant itself: transfected HEK293 cells (FIG. 2); for Vmax: standardised for the expression levels of the two recombinant proteins
# Protocol: (§3) Cell Culture and Transfection—Human embryonic kidney cells (HEK293T, ATCC CRL-1573) cells were cultured on Dulbecco's modified Eagle's medium (DMEM; CSL Biosciences, Parkville, Austrlia) containing 10% fetal calf serum, 2 mM glutamine, 0.2% (w/v) sodium bicarbonate, penicillin (1.2 mg/ml), and gentamycin (1.6 mg/ml). Transfections were performed using the calcium phosphate precipitation method (Graham & van der Eb, 1973). Cells were harvested and lysed by sonication (2 watts for 30 s at 4° C.) in lysis buffer containing 50 mM Tris/HCl (pH 7.4), 10% glycerol, 0.05% Triton X-100, 150 mM NaCl, 1 mM dithiothreitol, 2 mM Na3VO4 10 mM NaF, and 1 mM EDTA. Protein concentrations in cell homogenates were determined with either the Coomassie Brillant Blue (Sigma) or Bichinchoninic acid (Pierce) reagents using BSA as standard.
# as §3, with “Australia)” for “Austrlia)”, “Na3VO4,” for “Na3VO4”, “with” for “with either”, “Brilliant” for “Brillant”, “reagent” for “or Bichinchoninic acid (Pierce) reagents”
# (§4) Kinetic parameters were calculated using a non-linear regression program.
# [4] = test system: overexpressed wild-type sphingosine kinase; test: Activation of overexpressed wild-type sphingosine kinase by TNFα in cotransfected HEK293 cells; format: cell-based, human; details: for effect on activation of overexpressed wild-type sphingosine kinase: HEK293 cells cotransfected with equal proportions, 1 ng/ml TNFα 10 min (FIG. 5)
# Protocol: HEK293 cells, either transfected with pcDNA3-SK, or cotransfected with equval proportions of pcDNA3-SK and pcDNA3-G82DSK were treated with 1 ng/ml TNFα for 10 min. Cells were then harvested and the SK activity in the cell lysates determined.
# as §3
# sphingomyelinase = details: HEK293 cells, TNF (FIG. 8)
# Protocol: as §5
# [5] = test system: endogenous sphingosine kinase; test: Activation of endogenous sphingosine kinase activity by TNFα, IL-1 and PMA in HEK293 cells expressing the variant; format: cell-based, human; details: for effect on increases in sphingosine kinase activity after activating agents: 100 units/ml IL-1 10 min, 100 ng/ml PMA 30 min (FIGS. 3 & 4)
# Protocol: HEK293 cells transfected with either pcDNA3-G82DSK or empty pcDNA3 vector were treated with 1 ng/ml TNFα and 100 units/ml IL-1 for 10 min and 100 ng/ml PMA for 30 min.
# FIG. 4 is a graphical representation of time course of sphingosine kinase activation by TNFα in HEK293 cells expressing G82D SK. HEK293 cells transfected with either pcDNA3-G82DSK or empty pcDNA3 vector were treated with 1 ng/ml TNFα. Cells were harvested at various times over 45 min. of TNFα treatment with the cell lysates assayed for sphingosine kinase activity.
# as §3
# [6] = Kinetic analysis of hSK with sphingosine; format: biochemical, human; details: for Km: sphingosine 0-2 mM, ATP 1 mM (hSK^WT), 40 mM (hSK^G82A), non-linear regression
# Protocol: Kinetic analyses were performed with sphingosine in the concentration range of 0-2 mM for both hSK^WT and hSK^G82A. ATP was present at 1 mM and 40 mM for hSK^WT and hSK^G82A, respectively.
# as §4
# [7] = Kinetic analysis of hSK with ATP; format: biochemical, human
# Protocol: Kinetic analyses were performed with ATP in the concentration range of 0-2 mM and 0-40 mM for hSK^WT and hSK^G82A, respectively. In both cases sphingosine was present at 100 μM.
# as §4
# Chain of wild-type sphingosine kinase (Q9NYA1 whole entry): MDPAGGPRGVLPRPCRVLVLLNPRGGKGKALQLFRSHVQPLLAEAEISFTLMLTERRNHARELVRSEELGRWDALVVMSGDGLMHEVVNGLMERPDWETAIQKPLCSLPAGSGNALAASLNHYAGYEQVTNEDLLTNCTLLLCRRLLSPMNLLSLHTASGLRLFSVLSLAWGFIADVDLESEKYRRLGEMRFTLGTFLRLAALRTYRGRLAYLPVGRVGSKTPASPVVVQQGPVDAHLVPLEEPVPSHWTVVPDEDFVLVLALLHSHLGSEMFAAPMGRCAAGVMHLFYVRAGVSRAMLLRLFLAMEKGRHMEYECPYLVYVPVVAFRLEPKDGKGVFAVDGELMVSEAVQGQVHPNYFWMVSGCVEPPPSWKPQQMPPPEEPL
molecule,measurement,setting,value
"CCCCCCCCCCCCC/C=C/[C@@H](O)[C@H](CO)N(C)C [DMS, N′N-dimethylsphingosine]",effect on wild-type sphingosine kinase function,[1],totally eliminates
B1,effect on sphingosine kinase stimulated by the oncogene Ras,[2],inhibits
same,effect on sphingosine kinase stimulated by the oncogene Ras,[2]; listed as G82D SK,inhibiting activation
same,effect on activation of protein kinase C,protein kinase C,does not depress
same,effect on activation of protein kinase C,protein kinase C; listed as G82D SK,does not effect activation
same,effect on activation of erk by TNF,ERK,inhibits
same,effect on activation of erk by TNF,ERK; listed as G82D SK,prevents ERK activation
same,effect on Ras transformation (focus formation),NIH 3T3 cells,inhibits Ras transformation
same,sphingosine kinase (catalytic) activity of the variant itself,[3],no sphingosine kinase activity
same,sphingosine kinase (catalytic) activity of the variant itself,[3]; listed as G82D,catalytically inactive
same,effect on activation of overexpressed wild-type sphingosine kinase,[4],activation is decreased
same,effect on activation of overexpressed wild-type sphingosine kinase,[4]; listed as G82D SK,decreases activation
same,effect on overexpressed baseline sphingosine kinase levels,[4]; HEK293 cells overexpressing sphingosine kinase (FIG. 5),not altered
same,effect on activation of sphingomyelinase,sphingomyelinase,does not depress
same,effect on activation of sphingomyelinase,sphingomyelinase; listed as G82D SK,does not inhibit activation
same,effect on increases in sphingosine kinase activity after activating agents,[5]; 1 ng/ml TNFα,totally suppresses; also recorded: only eliminates activation
same,effect on increases in sphingosine kinase activity after activating agents,"[5]; 1 ng/ml TNFα, listed as G82D SK",blocks activation
same,effect on TNF mediated sphingosine kinase activation over time,"[5]; 1 ng/ml TNFα, time course over 45 min (FIG. 4)",inhibits TNF mediated activation at all time point
same,effect on endogenous baseline sphingosine kinase activity,[5]; no stimulus (FIG. 2),does not suppress
B2,affinity for sphingosine compared with wildtype hSK,[6]; FIG. 14,remains unaffected
same,Km,[6],15.5 µM
same,Vmax,[3],32 percentage of the maximum velocity calculated for SK^WT
same,catalytic activity relative to wildtype hSK,[3]; transfected HEK293T cell lysates (FIG. 12),~5%
same,affinity for ATP compared with wildtype hSK,[7]; FIG. 13,considerably lower affinity for ATP
B3,Km,[6],12.1 µM
same,Vmax,[3],100 percentage of the maximum velocity calculated for SK^WT
same,Km,"[7]; sphingosine 100 μM, ATP 0-2 mM (hSK^WT), 0-40 mM (hSK^G82A), non-linear regression",115 µM
